Source: publication PMC2965686

Experiments:
Test in all cases: FRET or BRET
[1] = biological target: YFP-Spo21 (S. cerevisiae) (UniProt Q12411)
[2] = biological target: YFP-Cnm67 (S. cerevisiae) (UniProt P53865)
[3] = biological target: Mpc54-YFP (S. cerevisiae) (UniProt Q08550)
[4] = biological target: Spo21-YFP (S. cerevisiae) (UniProt Q12411)

Sequence of UniProt Q08550 (Q08550 whole entry): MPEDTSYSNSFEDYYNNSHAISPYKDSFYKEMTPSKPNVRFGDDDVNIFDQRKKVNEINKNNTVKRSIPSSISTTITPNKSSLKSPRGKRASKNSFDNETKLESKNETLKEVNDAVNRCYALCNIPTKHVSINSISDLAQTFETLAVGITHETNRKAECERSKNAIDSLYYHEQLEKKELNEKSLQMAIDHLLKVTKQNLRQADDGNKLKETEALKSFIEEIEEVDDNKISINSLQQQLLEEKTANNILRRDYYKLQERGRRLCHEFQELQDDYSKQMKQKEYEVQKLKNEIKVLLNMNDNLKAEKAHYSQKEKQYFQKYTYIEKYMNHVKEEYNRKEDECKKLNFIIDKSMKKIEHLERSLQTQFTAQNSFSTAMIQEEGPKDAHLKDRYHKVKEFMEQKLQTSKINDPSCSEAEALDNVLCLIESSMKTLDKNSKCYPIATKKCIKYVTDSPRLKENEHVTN
Sequence of UniProt P53865 (P53865 whole entry): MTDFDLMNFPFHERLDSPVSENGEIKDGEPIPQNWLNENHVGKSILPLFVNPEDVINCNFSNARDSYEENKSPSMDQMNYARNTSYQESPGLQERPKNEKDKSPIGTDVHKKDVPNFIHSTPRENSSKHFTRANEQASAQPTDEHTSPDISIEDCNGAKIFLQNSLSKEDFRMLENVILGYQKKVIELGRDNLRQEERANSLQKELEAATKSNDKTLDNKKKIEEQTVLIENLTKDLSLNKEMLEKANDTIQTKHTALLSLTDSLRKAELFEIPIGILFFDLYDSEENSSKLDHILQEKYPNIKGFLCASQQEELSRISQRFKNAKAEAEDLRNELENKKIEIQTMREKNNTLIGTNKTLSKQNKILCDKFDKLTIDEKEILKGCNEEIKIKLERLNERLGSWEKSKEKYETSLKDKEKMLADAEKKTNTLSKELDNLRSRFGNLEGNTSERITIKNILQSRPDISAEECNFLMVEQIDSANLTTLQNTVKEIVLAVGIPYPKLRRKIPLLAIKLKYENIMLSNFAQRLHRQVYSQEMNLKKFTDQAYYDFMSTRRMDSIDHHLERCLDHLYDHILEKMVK

Substance: CFP-Mpc54 (from UniProt Q08550 1-464) (natural protein)
- FretR [1]: 1.23

Substance: Mpc54-CFP (from UniProt Q08550 1-464) (natural protein)
- FretR [2]: 1.35
- FretR [3]: 1.26

Substance: Spo21-CFP (from UniProt Q12411 1-609) (natural protein)
- FretR [4]: 1.34
- FretR [2]: 1.47
- FretR [3]: 1.24
